Data set [1] deals with T1, ParB-eGFP (Spo0J) (Bacillus subtilis, UniProt P26497 1-282).
T1 sequence: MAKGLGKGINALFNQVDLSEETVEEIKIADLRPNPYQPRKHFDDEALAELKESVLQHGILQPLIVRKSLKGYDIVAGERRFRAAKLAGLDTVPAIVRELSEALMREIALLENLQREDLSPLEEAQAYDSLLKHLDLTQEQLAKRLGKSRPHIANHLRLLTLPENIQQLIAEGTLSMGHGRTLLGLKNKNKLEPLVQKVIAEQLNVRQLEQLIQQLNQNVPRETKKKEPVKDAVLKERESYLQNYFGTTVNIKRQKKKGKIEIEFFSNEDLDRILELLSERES
Description: single-molecule colocalization with lambda DNA.

For data set [2], the target named is T1, ParB-eGFP (Spo0J). Description: single-molecule colocalization with lambda DNA. This is another data set of the same source.

Read-outs that look alike come from different tables or passages of the source.

B1: ns-oligo-Cy5 (58 bp) (dsDNA)
DNA 1: CGAAGGCTACGTCCAGGAGCGCACCATCTTCTTCAAGGACGACGGCAACTACAAGACC
DNA 2: GGTCTTGTAGTTGCCGTCGTCCTTGAAGAAGATGGTGCGCTCCTGGACGTAGCCTTCG
For the molecule B1, the binding signal was ~2 fold shorter lifetime than parS-oligo in the data set with ParB-eGFP (Spo0J) [1] and ~3 fold fewer multimer-oligo complexes than parS-oligo with ParB-eGFP (Spo0J) [2].
